# ± gives the uncertainty stated by the source.
# Assay: protein stability index of a GFP-peptide fusion (yeast GPS) (PSI 1-4); higher = more stable; sorted into four equal gates, so the index is relative within each strain
# Summary of the method: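 Plasmids isolated from each sorting gate were PCR-amplified and Illumina-sequenced, and barcodes assigned the reads to strains. The gates, four of equal size, were set by GFP/Cherry fluorescence ratio on mid-log cultures in leucine-free medium. These cultures were yeast carrying a pooled library of tiled 17-residue yeast protein peptides fused downstream of GFP on a plasmid that also expresses Cherry. The protein stability index is the sum of every gate's read frequency times its gate number.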
sequence,measurement,setting,value
GILGNKAQAKMDKRAKT [RPL8B],protein stability index,doa10∆,3.58 ± 0.12
same,protein stability index,pdr5∆,3.48 ± 0.15
same,protein stability index,san1∆,3.4 ± 0.058
same,protein stability index,ubr1∆,3.63 ± 0.079
GINKIPPKPRKVLQLLR [RPL7A],protein stability index,doa10∆,3.06 ± 0.087
same,protein stability index,pdr5∆,3.15 ± 0.11
same,protein stability index,san1∆,3.22 ± 0.061
same,protein stability index,ubr1∆,3.15 ± 0.069
GINKKKLLAISKFNNAD [RPC31],protein stability index,pdr5∆,1.93 ± 0.18
same,protein stability index,san1∆,2.97 ± 0.23
GIREKRAREKAEAEAEK [RPL13A],protein stability index,pdr5∆,3.5 ± 0.25
GIRWELISRLCPNSTGA [RPT1],protein stability index,doa10∆,2.04 ± 0.047
same,protein stability index,pdr5∆,2.25 ± 0.05
same,protein stability index,san1∆,2.12 ± 0.076
same,protein stability index,ubr1∆,2.19 ± 0.038
GIVDELAYAVLGIALIA [RPN1],protein stability index,doa10∆,1.76 ± 0.1
same,protein stability index,pdr5∆,1.42 ± 0.1
same,protein stability index,san1∆,1.48 ± 0.16
same,protein stability index,ubr1∆,1.17 ± 0.062
GIWNDLGSGSNVDVCVM [PUP1],protein stability index,doa10∆,2.69 ± 0.27
GKAATAKETHTKPSETP [YOR098C/NUP1],protein stability index,doa10∆,2.57 ± 0.098
same,protein stability index,pdr5∆,2.84 ± 0.094
same,protein stability index,san1∆,2.76 ± 0.077
same,protein stability index,ubr1∆,2.37 ± 0.091
GKASLFAQGKRRYDRKQ [RPL42A],protein stability index,doa10∆,3.28 ± 0.11
same,protein stability index,pdr5∆,3.09 ± 0.1
same,protein stability index,san1∆,3.4 ± 0.088
same,protein stability index,ubr1∆,3.4 ± 0.072
GKEHIVAALVSLTEKFS [ECM29],protein stability index,doa10∆,1.73 ± 0.047
same,protein stability index,pdr5∆,1.95 ± 0.055
same,protein stability index,san1∆,1.58 ± 0.084
same,protein stability index,ubr1∆,1.63 ± 0.042
GKGIKLSIAEERDRRRA [RPS4A],protein stability index,doa10∆,2.59 ± 0.12
same,protein stability index,pdr5∆,2.87 ± 0.16
same,protein stability index,san1∆,3.35 ± 0.072
same,protein stability index,ubr1∆,3.23 ± 0.09
GKHLSYQRSKRVNNPNV [RPL33A],protein stability index,doa10∆,2.32 ± 0.047
same,protein stability index,pdr5∆,1.92 ± 0.038
same,protein stability index,san1∆,2.01 ± 0.069
same,protein stability index,ubr1∆,2.78 ± 0.041
GKIEKIAQSKKKNNKIK [SRP21],protein stability index,doa10∆,3.11 ± 0.094
same,protein stability index,pdr5∆,3.02 ± 0.078
same,protein stability index,san1∆,3.01 ± 0.066
same,protein stability index,ubr1∆,3.14 ± 0.057
GKKKSATAVAHVKAGKG [RPS16A],protein stability index,doa10∆,2.86 ± 0.094
same,protein stability index,pdr5∆,2.69 ± 0.073
same,protein stability index,san1∆,2.49 ± 0.11
same,protein stability index,ubr1∆,2.53 ± 0.11
GKKVLNKNQLLKRNRIR [POP1],protein stability index,doa10∆,2.88 ± 0.068
same,protein stability index,pdr5∆,3.08 ± 0.055
same,protein stability index,san1∆,2.94 ± 0.064
same,protein stability index,ubr1∆,3.05 ± 0.053
GKPSFVFGASDKQAEGT [YOR098C/NUP1],protein stability index,doa10∆,3.33 ± 0.13
same,protein stability index,pdr5∆,3.07 ± 0.12
same,protein stability index,san1∆,3.07 ± 0.12
same,protein stability index,ubr1∆,3.29 ± 0.087
GKRQVLLRPSSKVIIKF [RPS22B],protein stability index,doa10∆,2.83 ± 0.1
same,protein stability index,pdr5∆,2.21 ± 0.055
same,protein stability index,san1∆,3.25 ± 0.057
same,protein stability index,ubr1∆,2.15 ± 0.049
GKTDYYQRKRLVTQHKA [RPL5],protein stability index,ubr1∆,3.69 ± 0.22
GKTGLSNMILGSVELST [YML103C/NUP188],protein stability index,doa10∆,2.24 ± 0.056
same,protein stability index,pdr5∆,2.57 ± 0.086
same,protein stability index,san1∆,2.34 ± 0.069
same,protein stability index,ubr1∆,2.33 ± 0.042
GKTLAFVIPILIKMSRS [PRP28],protein stability index,doa10∆,1.38 ± 0.071
same,protein stability index,pdr5∆,1.62 ± 0.079
same,protein stability index,san1∆,1.22 ± 0.19
GKTYMGWWGHMGGPKQK [QCR8],protein stability index,doa10∆,1.88 ± 0.22
same,protein stability index,pdr5∆,1.79 ± 0.11
same,protein stability index,san1∆,1.63 ± 0.19
same,protein stability index,ubr1∆,2.4 ± 0.14
GKVRLWKATYSNEFKCM [YGL100W/SEH1],protein stability index,doa10∆,2 ± 0.041
same,protein stability index,pdr5∆,1.84 ± 0.053
same,protein stability index,san1∆,1.78 ± 0.048
same,protein stability index,ubr1∆,2.22 ± 0.03
GLAVGLALINYGRQELA [RPN2],protein stability index,doa10∆,1.3 ± 0.11
same,protein stability index,pdr5∆,1.21 ± 0.076
same,protein stability index,san1∆,1.58 ± 0.24
same,protein stability index,ubr1∆,1.09 ± 0.053
GLESLLNIGLGAVGLKD [YCS4],protein stability index,doa10∆,2.77 ± 0.1
same,protein stability index,pdr5∆,2.61 ± 0.15
same,protein stability index,san1∆,2.89 ± 0.13
same,protein stability index,ubr1∆,2.68 ± 0.065
GLHPFEVAQLGSLACDT [RPB4],protein stability index,doa10∆,1.9 ± 0.15
same,protein stability index,pdr5∆,2.25 ± 0.18
same,protein stability index,ubr1∆,2.33 ± 0.08
GLIPYPHHNQSPRNTYQ [RET1],protein stability index,doa10∆,2.58 ± 0.078
same,protein stability index,pdr5∆,2.77 ± 0.095
same,protein stability index,san1∆,2.83 ± 0.069
same,protein stability index,ubr1∆,2.93 ± 0.069
GLIYSFNEENGEDSTKP [POP1],protein stability index,doa10∆,3.25 ± 0.098
same,protein stability index,pdr5∆,3.21 ± 0.18
same,protein stability index,san1∆,2.86 ± 0.26
same,protein stability index,ubr1∆,3.1 ± 0.17
GLMSANNIIAEGIEKMG [FAS2],protein stability index,doa10∆,1.68 ± 0.12
same,protein stability index,pdr5∆,1.74 ± 0.098
same,protein stability index,san1∆,1.58 ± 0.18
same,protein stability index,ubr1∆,1.48 ± 0.084
